Reference: patent publication US20230374149A1 (SHANGHAI HANSOH BIOMEDICAL, published 2023)

Target: T1, His-tagged human TROP-2 (TROP-2-His), SinoBiologics 10428-H08H (human, UniProt P09758 27-274)
T1 construct: Bought protein; also called TROP-2 His protein; human TROP-2 His antigen; not shown: His tag
T1 sequence: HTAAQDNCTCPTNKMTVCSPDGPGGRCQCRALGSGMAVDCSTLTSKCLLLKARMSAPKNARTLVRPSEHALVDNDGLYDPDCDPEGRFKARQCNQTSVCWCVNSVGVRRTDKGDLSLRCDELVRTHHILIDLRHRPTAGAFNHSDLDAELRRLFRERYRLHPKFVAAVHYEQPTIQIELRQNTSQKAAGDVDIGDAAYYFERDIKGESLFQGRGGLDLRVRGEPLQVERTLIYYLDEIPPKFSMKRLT
Assay: indirect ELISA, coated TROP-2 His

- EC50: 0.56 nM
B1: murine monoclonal antibody M1 (antibody, V domains shown)
VH: QVQLQQPGAELVRPGASVKLSCRASGYTFTNYWMNWVKQRPEQGLEWIGRIDPNDSETHYNQKFKDRAILTVDKASNTAYMQLSGLTSEDSAVHYCARSGFGSTYWFFDVWGAGTTVTVSS
VL: DIVMTQSHKFMSTSVGDRVSITCKASQDVSTAVAWYQQKPGQSPKLLIYSASYRYTGVPDRFAGSGYGTDFTFTISSVQTEDLTVYHCQQHYSTPLTFGPGTRLELK
notes: It is called a murine antibody, but the ELISA used a goat-anti-human secondary antibody
